Target: PARP-1 (recombinant, unmodified) (UniProt P09874 1-1014)
Assay: EMSA

PARP-1 (recombinant, unmodified), sequence (P09874 whole entry): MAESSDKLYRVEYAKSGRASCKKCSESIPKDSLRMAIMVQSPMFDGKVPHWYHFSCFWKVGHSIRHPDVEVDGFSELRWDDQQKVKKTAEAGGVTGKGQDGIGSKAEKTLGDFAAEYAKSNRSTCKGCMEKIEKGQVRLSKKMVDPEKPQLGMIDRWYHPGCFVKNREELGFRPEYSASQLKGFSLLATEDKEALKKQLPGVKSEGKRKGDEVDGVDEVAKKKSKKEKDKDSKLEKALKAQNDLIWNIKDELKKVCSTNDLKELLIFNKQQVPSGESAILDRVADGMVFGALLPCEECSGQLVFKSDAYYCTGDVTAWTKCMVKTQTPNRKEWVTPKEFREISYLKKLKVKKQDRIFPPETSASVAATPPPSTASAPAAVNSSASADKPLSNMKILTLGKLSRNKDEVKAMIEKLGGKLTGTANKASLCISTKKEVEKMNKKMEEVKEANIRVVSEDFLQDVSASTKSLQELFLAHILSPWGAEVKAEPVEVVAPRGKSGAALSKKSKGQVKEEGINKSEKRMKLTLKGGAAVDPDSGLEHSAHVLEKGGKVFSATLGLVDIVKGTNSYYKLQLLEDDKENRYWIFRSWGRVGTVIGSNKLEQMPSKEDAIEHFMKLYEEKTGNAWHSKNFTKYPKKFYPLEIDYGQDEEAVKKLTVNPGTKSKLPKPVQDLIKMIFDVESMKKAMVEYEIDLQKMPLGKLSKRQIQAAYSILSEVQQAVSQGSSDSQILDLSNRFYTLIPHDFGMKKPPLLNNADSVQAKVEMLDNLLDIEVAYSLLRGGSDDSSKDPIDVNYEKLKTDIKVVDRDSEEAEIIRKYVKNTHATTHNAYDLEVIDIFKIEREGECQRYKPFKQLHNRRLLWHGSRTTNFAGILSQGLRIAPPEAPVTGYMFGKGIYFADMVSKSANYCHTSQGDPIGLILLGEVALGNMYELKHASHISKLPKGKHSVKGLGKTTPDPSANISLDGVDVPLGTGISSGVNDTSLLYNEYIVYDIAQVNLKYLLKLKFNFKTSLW

B1: NS (MOR poly(C) sequence) (dsDNA)
DNA 1: CTTCTGCTCCCCCCCCCCCTACCC
DNA 2: GGGTAGGGGGGGGGGGAGCAGAAG
B1: binds.

Source: article PMC4514111
